From paper PMC5478727, “A Novel Small Molecule GDNF Receptor RET Agonist, BT13, Promotes Neurite Growth from Sensory Neurons in Vitro and Attenuates Experimental Neuropathy in the Rat” (Frontiers in Pharmacology, 2017)
“And” between values parts separate entries of the source, which are not always exact repeats. Identical values can stand only once.

Assays:
[1] = molecular target: T1, serotonin receptor 5-HT2C (Homo sapiens, UniProt P28335); test: CEREP 5-HT2C (h) (agonist radioligand); type: binding; conditions: reference compound
T1 construct: purchased CEREP (contract assay) 0137, 1003
T1 sequence (P28335 33-458): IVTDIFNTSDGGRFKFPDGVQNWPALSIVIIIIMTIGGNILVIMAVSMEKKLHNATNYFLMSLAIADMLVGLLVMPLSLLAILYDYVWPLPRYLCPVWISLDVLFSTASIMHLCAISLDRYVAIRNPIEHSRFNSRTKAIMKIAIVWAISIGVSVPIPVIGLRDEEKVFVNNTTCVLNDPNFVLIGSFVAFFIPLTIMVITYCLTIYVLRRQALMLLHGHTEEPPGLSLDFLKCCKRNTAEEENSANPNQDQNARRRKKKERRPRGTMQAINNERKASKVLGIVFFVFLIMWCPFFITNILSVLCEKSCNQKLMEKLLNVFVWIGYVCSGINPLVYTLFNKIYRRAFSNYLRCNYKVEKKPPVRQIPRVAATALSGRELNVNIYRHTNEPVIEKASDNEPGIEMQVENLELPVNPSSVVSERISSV

[2] = molecular target: T1, serotonin receptor 5-HT2C; test: CEREP 5-HT2C (h) (antagonist radioligand); type: binding; conditions: reference compound
neurotensin receptor NT = test: CEREP NT (non-selective; agonist radioligand); type: binding; conditions: reference compound, Cat. No. 0465
GFRα1/RET = molecular target: T2, GFRα1/RET (Homo sapiens, UniProt P07949); set-up: method as in Sidorova et al., 2010; conditions: GDNF in this assay, ref Sidorova et al., 2010, cited from earlier work
T2 construct: full-length human RET (long isoform) in pCR3.1; expressed in transfected cells; host or cells: MG87 murine fibroblasts (MG87RET + PathDetect Elk-1 + GFRα1)

[3] = system: dorsal root ganglia neurons of SNL rats; test: Immunohistochemistry of DRG neuronal markers in rats with spinal nerve ligation; type: in vivo, rat; conditions: IHC
Excerpt: DRGs from rats with spinal nerve ligation treated with BT13 or vehicle were embedded in paraffin and sectioned (7 μm thickness). Sections were deparaffinized, subjected to citrate or basic antigen-retrieval procedure and probed with IB4-Alexa 488 [1:200; IB4-Alexa488, Cat# IB4 (isolectin Griffonia simplicifolia IB4) RRID:AB_2314664] and antibodies against calcitonin gene-related peptide (CGRP; 1:10,000, Peninsula Laboratory, Cat# T-4032 RRID:AB_2313775), NPY (1:10,000, Peninsula Laboratory, Cat# T-4070.0050 RRID:AB_518504), pErk1/2 (1:300, Cell Signaling, Cat# 4370L RRID:AB_2297462), pS6 (1:300, Cell Signaling, Cat# 4858L RRID:AB_1031194) or RET [1:100, kind gift of Dr. E. Kramer, Center for Molecular Neurobiology, University Medical Center Hamburg-Eppendorf, Hamburg, Germany (Meka et al., [2015])] and corresponding secondary antibodies conjugated with fluorophores (Donkey Anti-Rabbit Alexa Fluor 647 conjugate, Cat# A31573 RRID:AB_162544; Donkey anti-Mouse Alexa Fluor 647 conjugate, Cat# A-31571 RRID:AB_2536181; Goat anti-Guinea Pig, Alexa Fluor 568 conjugate, Cat# A-11075 RRID:AB_2534119, Thermo Fisher Scientific, USA) or horse radish peroxidase (VECTASTAIN Elite ABC-Peroxidase Kit antibody, Vector Laboratories, CA, USA, Cat# PK-6101 RRID:AB_2336820). In the latter case, to reveal staining slides were treated with ABC and DAB staining kits (Vector Laboratories, CA, USA) according to the manufacturer's instructions. Sections were co-stained with guinea pig anti-PGP9.5 antibodies (Abcam Cat# ab10410 RRID:AB_297150) whenever possible. Nuclei were visualized using hematoxylin or DAPI dyes. Sections were mounted in Immu-Mount (Thermo Scientific, Cat#9990402) or Coverquick 2000 (Q PATH, Cat#05547530) mounting media and images were taken with fluorescent (Zeiss Imager M2 Axio, Carl Zeiss, Germany) or bright-field (Olympus BX-61, Olympus, Japan) microscopes. Neurons were counted for two sections per DRG and the number of cell profiles with nuclei positive for each specific marker was normalized to the total number of the neurons (identified by PGP9.5 staining or by morphology) per section. Ret-positive neurons were clustered by size using Matlab software R2014b (Mathworks, USA). Statistical analysis was performed using data from three to six individual animals. To obtain sufficient sample size, the data from animals treated with 20 and 25 mg/kg of BT13 were combined.

[4] = system: adult rat lumbar DRG sensory neurons; test: Neurite outgrowth from cultured DRG neurons; type: cell-based; conditions: ARTN 30 ng/ml
Description: Cultured lumbar DRG (L3–L5) neurons were prepared using a published method (O'Mullane et al., [2013]). After plating onto poly-L-ornithine (5 μg/ml)/laminin (5 μg/ml) coated coverslips for 1 h, DRG neurons were cultured for 24–30 h in fresh Neurobasal A/B27. GFLs, BT13, NGF, and vehicle control were added at the start of this period for a 24–30 h treatment, except when preceded by pre-treatment (1 h) with inhibitors (50 μM LY294002; 2 μM SU6656, […]; Biomol Research Laboratories, Plymouth Meeting, PA, USA). DRG neurons were then fixed (4% paraformaldehyde) and processed for immunocytochemistry with 1:200 Mouse anti-β III tubulin/AlexaFluor 594 (Sigma-Aldrich Cat# T8660 RRID:AB_477590) and 1:5,000 rabbit anti-calcitonin gene-related peptide/AlexaFluor 488 (Sigma-Aldrich Cat# C8198 RRID:AB_259091) and DAPI for nuclear staining (0.5 μg/ml, Molecular Probes). Image analysis of multichannel 12 bit Zeiss .ZVI or .TIF files (captured with a Zeiss Imager.M1/MRm camera/Zen software; Carl Zeiss Australia, North Ryde, NSW, Australia) was then performed by a researcher blinded to the experimental condition. Neurite initiation was measured by a single parameter (proportion of neurons with neurites longer than the soma diameter). Neurite elongation was measured by batch processing (HCA-Vision software; CSIRO Mathematical and Information Sciences, North Ryde, NSW, Australia) to obtain four parameters—Root number: number of primary neurites; Maximum length: length of longest neurite; Branch points: number of neurite branch points; and Total length: sum of neurite lengths (Kalous and Keast, [2010]; Kalous et al., [2012]). The number of neurons of each immunocytochemical class counted on each coverslip (technical replicates) was 50 for neurite initiation and 20 for neurite elongation. A minimum of three cultures from different rats (biological replicates) were analyzed for each treatment group.

[5] = system: rats with spinal nerve ligation (L5/L6); test: Spinal nerve ligation (Chung's) model of experimental neuropathy, von Frey test; conditions: ARTN 0.5 mg/kg s.c. on days 1, 3, 5, 8, 10, 12; von Frey, day 12 post-surgery

T2 sequence (P07949 29-1114): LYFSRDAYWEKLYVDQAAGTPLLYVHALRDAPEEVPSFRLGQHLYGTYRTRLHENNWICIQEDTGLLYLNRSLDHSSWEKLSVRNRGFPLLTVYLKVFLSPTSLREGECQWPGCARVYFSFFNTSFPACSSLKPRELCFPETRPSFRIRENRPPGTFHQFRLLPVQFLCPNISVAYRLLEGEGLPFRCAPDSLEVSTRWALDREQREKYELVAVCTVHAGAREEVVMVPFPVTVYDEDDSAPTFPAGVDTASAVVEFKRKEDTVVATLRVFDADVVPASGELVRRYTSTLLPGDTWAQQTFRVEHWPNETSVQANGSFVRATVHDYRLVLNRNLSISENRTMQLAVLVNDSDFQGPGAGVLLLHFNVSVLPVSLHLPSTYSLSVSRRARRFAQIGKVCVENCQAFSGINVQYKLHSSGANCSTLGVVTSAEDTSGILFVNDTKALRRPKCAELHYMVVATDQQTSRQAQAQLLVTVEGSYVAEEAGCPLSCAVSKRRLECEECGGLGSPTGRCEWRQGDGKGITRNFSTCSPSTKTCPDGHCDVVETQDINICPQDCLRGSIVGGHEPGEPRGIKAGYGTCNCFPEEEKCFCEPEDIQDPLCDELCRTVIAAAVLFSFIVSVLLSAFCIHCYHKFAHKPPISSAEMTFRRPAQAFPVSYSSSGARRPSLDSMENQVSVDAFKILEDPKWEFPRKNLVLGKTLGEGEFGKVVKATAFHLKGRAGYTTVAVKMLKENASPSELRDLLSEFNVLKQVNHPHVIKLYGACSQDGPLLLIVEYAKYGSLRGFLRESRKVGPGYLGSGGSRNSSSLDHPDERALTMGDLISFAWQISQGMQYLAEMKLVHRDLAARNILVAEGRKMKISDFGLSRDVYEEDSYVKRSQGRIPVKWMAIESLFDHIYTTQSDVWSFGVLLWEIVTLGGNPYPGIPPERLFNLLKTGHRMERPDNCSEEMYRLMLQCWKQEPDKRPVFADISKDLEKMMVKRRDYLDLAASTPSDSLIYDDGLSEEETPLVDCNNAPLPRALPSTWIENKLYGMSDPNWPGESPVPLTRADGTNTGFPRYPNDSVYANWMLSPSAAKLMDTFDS

Work on `COc1cc(CC(C)N)c(OC)cc1I` (racemic) [(±)DOI] yielded an IC50 ([1]; Cat. No. 1003) of 0.46 nM and a Ki ([1]; Cat. No. 1003, read-out: Ki Ref) of 0.42 nM.

`COc1cc(OC)c(C(=O)CCCCN2CCC3(CC2)NC(=O)NC3=O)cc1NS(=O)(=O)c1ccc(C(F)(F)F)cc1` [RS 102221] showed an IC50 ([2]; Cat. No. 0137) of 3 nM and a Ki ([2]; Cat. No. 0137, read-out: Ki Ref) of 0.99 nM.

Neurotensin gave an IC50 (neurotensin receptor NT) of 2.9 nM and a Ki (neurotensin receptor NT; read-out: Ki Ref) of 2.7 nM.

B1: glial cell line-derived neurotrophic factor (protein, UniProt P39905 78-211, looked up)
Glial cell line-derived …: SPDKQMAVLPRRERNRQAAAANPENSRGKGRRGQRGKNRGCVLTAIHLNVTDLGLGYETKEELIFRYCSGSCDAAETTYDKILKNLSRNRRLVSDKVGQACCRPIAFDDDLSFLDDNLVYHILRKHSAKRCGCI
notes: GDNF family ligand protein from PeproTech
For B1, the “efficacy, fold induction of luciferase above baseline” value (GFRα1/RET) is listed as 84.9 fold and 50–100 fold and the EC50 (GFRα1/RET; read-out: EC50, luciferase activation) is listed as 1.2 nM.

B2: artemin (protein, UniProt Q5T4W7 108-220, looked up)
Artemin: AGGPGSRARAAGARGCRLRSQLVPVRALGLGHRSDELVRFRFCSGSCRRARSPHDLSLASLLGAGALRPPPGSRPVSQPCCRPTRYEAVSFMDVNSTWRTVDRLSATACGCLG
notes: as for B1
For B2, the “reduction in the number of RET-positive cells in DRGs after SNL” value ([3]; day 12 after SNL) was “restored”, the “number of large RET-positive neurons in lesioned DRGs” value ([3]; size above 1,000 μm^2, vs contralateral) was “increased” and the “number of small RET-positive neurons in lesioned DRGs” value ([3]; size below 1,000 μm^2, vs contralateral) was “decreased”. The “neurite initiation or extension” value ([4]; CGRP-negative neurons, NGF 10 ng/ml, BT13 100 ng/ml) was “no effect”, the “neurite elongation significantly increased” value ([4]; CGRP-positive neurons) was “not” and the neurite initiation ([4]; CGRP-positive neurons, NGF 10 ng/ml, BT13 100 ng/ml, overnight) was “significantly increased”. The “proportion of DRG neurons that expressed CGRP in culture” value ([4]; NGF 10 ng/ml, BT13 100 ng/ml) was “did not alter” and the “increase of ipsilateral paw withdrawal threshold (PWT)” value [5] was 2.6 times.
